Data from the supplement of paper PMC10065799, “High-throughput profiling of sequence recognition by tyrosine kinases and SH2 domains using bacterial peptide display” (eLife, 2023).

Key:
AncSZ = assay: phosphorylation enrichment, bacterial display (enrichment ratio); higher = better substrate or ligand; peptides without Tyr show the background
EPHB1 = EPHB1 (UniProt P54762); assay: as above
EPHB2 = EPHB2 (UniProt P29323); assay: as above
FGFR1 = FGFR1 (UniProt P11362); assay: as above
FGFR3 = FGFR3 (UniProt P22607); assay: as above
Fer (mouse) = assay: as above
Fes = Fes (UniProt P07332); assay: as above
Fyn = Fyn (UniProt P06241); assay: as above
Hck = Hck (UniProt P08631); assay: as above
Jak2 = Jak2 (UniProt O60674); assay: as above
MERTK = MERTK (UniProt Q12866); assay: as above
c-Abl (mouse) = assay: as above
c-Src = assay: as above
Grb2 SH2 = Grb2 SH2 (UniProt P62993); assay: SH2 binding enrichment of the phosphorylated peptide, bacterial display (enrichment ratio); higher = better substrate or ligand; peptides without Tyr show the background
SHP2-C SH2 = assay: as above
c-Src SH2 = assay: as above
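For SH2 binding enrichment of the phosphorylated peptide, bacterial display in this document: peptide library displayed on the E. coli surface as eCPX fusions, selected cells deep-sequenced, score is each peptide's frequency after selection divided by its frequency in the input.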
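For phosphorylation enrichment, bacterial display in this document: 11-residue human phosphosite peptides and single-mutation variants displayed on the E. coli surface, counted by deep sequencing, each peptide's frequency after selection divided by its frequency in the unselected input library; frequency after pTyr selection over input frequency; kinase dosed for 20-30% of maximal phosphorylation in three min.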

MERTK, sequence (Q12866 whole entry, looked up): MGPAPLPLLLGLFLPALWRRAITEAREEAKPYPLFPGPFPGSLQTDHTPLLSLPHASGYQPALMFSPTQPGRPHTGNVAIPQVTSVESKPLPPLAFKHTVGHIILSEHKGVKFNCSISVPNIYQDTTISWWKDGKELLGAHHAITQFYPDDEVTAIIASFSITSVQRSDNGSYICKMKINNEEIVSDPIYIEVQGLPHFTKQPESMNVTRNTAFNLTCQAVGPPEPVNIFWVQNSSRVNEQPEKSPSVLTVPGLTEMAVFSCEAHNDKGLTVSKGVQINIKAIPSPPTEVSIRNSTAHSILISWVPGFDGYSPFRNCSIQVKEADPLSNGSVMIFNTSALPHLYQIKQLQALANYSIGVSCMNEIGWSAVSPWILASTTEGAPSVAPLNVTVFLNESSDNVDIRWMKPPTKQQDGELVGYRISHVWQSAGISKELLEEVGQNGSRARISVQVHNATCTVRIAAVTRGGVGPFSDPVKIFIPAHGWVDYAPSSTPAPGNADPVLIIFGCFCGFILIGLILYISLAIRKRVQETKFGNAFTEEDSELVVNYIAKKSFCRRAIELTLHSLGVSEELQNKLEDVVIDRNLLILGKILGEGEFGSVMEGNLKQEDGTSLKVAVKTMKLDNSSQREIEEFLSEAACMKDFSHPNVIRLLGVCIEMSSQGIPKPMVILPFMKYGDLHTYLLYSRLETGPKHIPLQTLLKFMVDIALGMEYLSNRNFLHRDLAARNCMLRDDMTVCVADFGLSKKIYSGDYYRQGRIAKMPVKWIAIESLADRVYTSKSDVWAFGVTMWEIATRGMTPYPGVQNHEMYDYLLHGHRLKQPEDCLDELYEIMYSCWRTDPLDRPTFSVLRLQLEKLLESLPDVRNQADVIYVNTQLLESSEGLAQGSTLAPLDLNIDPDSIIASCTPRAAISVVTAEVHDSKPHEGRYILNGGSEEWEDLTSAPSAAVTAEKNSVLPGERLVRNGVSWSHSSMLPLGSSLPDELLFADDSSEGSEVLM
Hck, sequence (P08631 whole entry, looked up): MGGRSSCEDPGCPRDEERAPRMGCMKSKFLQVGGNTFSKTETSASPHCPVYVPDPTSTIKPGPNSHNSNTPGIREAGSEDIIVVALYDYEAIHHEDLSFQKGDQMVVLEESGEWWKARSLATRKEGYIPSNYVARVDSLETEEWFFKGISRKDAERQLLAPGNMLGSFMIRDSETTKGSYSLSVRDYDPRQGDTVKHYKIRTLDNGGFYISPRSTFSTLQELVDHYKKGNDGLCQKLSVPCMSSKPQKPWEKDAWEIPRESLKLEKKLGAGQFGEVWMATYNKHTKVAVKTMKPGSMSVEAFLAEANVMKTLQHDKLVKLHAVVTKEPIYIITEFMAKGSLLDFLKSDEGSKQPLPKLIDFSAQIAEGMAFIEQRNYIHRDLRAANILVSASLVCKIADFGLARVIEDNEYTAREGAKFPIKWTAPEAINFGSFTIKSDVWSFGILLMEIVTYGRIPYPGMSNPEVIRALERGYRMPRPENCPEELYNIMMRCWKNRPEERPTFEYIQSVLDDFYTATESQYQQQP
EPHB2, sequence (P29323 whole entry, looked up): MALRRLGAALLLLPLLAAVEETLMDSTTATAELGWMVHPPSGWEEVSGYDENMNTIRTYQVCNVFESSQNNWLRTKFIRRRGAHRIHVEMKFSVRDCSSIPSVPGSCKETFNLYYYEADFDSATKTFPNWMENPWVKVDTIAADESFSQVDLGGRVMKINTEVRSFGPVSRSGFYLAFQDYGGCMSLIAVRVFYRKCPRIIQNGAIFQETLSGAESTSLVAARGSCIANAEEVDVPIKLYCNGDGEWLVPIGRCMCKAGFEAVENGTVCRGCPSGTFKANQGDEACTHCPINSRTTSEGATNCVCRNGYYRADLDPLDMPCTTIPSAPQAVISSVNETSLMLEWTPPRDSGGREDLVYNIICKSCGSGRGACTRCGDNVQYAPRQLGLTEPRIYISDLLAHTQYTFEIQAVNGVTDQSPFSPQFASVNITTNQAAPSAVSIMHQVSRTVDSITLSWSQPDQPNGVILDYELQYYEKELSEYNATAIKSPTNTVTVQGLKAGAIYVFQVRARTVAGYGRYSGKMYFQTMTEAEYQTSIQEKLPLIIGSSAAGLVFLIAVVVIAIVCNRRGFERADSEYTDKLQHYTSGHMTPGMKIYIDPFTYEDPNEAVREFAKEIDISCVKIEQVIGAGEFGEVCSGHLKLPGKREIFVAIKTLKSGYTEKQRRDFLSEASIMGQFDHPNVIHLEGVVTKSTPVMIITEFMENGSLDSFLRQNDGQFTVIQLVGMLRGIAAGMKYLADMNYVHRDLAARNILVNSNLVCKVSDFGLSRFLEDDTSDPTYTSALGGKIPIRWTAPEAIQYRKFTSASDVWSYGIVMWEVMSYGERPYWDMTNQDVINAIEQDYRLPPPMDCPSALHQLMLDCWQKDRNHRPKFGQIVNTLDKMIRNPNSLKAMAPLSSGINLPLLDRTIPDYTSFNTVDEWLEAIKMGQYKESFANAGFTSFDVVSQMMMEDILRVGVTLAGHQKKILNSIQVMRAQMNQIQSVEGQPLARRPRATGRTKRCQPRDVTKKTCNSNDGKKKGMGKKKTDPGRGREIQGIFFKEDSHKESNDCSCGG
Jak2, sequence (O60674 whole entry, looked up): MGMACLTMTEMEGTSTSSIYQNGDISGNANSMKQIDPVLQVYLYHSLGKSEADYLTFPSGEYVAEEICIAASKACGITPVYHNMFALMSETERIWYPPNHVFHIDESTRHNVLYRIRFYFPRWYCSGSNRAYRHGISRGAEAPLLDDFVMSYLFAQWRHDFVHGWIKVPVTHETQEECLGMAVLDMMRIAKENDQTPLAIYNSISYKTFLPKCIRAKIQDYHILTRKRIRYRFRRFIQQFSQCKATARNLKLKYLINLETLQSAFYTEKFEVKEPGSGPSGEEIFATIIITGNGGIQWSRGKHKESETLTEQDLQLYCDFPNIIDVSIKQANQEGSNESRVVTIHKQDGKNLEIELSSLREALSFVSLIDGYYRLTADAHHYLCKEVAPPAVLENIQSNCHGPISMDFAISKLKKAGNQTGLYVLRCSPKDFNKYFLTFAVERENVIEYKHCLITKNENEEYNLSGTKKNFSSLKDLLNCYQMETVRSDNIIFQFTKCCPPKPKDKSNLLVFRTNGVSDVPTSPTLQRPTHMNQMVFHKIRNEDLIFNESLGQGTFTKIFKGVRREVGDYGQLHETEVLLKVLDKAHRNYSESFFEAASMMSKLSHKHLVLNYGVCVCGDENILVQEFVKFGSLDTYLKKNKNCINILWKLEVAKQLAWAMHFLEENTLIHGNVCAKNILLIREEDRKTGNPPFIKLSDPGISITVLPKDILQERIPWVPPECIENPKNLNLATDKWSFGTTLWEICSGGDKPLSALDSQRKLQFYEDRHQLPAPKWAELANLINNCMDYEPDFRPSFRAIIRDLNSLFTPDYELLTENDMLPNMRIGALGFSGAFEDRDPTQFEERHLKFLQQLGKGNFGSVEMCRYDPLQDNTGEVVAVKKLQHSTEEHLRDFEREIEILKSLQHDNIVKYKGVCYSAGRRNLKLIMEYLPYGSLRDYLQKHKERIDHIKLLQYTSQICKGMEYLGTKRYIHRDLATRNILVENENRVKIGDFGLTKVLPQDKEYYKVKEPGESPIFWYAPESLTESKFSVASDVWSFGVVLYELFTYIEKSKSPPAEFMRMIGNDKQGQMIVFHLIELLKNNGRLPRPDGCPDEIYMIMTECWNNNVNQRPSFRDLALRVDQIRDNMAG
FGFR3, sequence (P22607 whole entry, looked up): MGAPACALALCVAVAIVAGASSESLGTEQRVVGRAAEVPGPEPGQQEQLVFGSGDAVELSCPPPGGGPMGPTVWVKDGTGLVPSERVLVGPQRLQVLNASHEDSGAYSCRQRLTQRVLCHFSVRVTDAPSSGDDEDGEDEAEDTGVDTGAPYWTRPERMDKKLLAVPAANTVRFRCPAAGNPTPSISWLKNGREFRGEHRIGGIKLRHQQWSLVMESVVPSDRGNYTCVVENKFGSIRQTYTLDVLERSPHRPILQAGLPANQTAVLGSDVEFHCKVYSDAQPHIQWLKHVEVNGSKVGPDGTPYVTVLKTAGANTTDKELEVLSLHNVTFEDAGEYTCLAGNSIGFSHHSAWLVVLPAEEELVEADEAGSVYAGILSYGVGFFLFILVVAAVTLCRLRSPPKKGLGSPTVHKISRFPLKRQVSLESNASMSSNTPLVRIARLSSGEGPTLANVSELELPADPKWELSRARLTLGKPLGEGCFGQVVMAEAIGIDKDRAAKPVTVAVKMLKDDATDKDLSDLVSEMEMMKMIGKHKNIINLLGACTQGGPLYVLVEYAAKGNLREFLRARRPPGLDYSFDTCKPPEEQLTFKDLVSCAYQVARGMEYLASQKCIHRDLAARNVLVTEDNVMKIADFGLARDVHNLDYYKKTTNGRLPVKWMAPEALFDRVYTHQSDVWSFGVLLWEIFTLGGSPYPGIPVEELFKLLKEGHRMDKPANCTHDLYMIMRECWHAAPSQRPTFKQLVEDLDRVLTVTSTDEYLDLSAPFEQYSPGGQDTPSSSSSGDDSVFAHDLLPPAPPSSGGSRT
Fyn, sequence (P06241 whole entry, looked up): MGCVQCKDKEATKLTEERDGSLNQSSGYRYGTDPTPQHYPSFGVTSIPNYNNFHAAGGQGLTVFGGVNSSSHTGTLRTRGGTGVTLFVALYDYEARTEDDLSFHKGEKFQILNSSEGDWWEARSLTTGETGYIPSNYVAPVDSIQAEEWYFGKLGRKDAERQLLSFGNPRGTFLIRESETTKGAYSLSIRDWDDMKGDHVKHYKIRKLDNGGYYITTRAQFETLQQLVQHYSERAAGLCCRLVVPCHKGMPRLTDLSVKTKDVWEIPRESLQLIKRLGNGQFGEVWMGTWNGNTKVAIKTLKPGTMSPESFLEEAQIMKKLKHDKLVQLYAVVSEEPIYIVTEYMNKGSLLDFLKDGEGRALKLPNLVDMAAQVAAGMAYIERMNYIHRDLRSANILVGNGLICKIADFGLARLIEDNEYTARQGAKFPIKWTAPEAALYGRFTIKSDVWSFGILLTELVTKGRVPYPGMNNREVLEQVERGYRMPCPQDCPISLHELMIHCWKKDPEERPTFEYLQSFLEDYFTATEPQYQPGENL

SH2 binding enrichment (Grb2 SH2) | SH2 binding enrichment (SHP2-C SH2) | SH2 binding enrichment (c-Src SH2) | Sequence | phosphorylation enrichment (AncSZ) | phosphorylation enrichment (EPHB1) | phosphorylation enrichment (EPHB2) | phosphorylation enrichment (FGFR1) | phosphorylation enrichment (FGFR3) | phosphorylation enrichment (Fer (mouse)) | phosphorylation enrichment (Fes) | phosphorylation enrichment (Fyn) | phosphorylation enrichment (Hck) | phosphorylation enrichment (Jak2) | phosphorylation enrichment (MERTK) | phosphorylation enrichment (c-Abl (mouse)) | phosphorylation enrichment (c-Src)
0.803 | 0.503 | 4.85 | AAVPAYDKIRV [STXBP2_Y401] | 0.64 | 0.372 | 0.355 | 0.321 | 0.541 | 2.02 | 0.714 | 0.344 | 1.36 | 0.874 | 0.48 | 0.569 | 0.452
0.751 | 0.527 | 0.477 | ADARMCGVLPW [PLP1_Y207_Y207C] | 0.93 | 0.606 | 0.524 | 0.489 | 0.671 | 0.44 | 1 | 0.436 | 0.488 | 1.1 | 0.436 | 0.746 | 0.487
0.573 | 0.519 | 0.327 | ADARMYGVLLW [PLP1_Y207_P211L] | 1.12 | 0.559 | 0.662 | 0.591 | 0.751 | 0.616 | 1.39 | 3.59 | 2.42 | 1.03 | 0.544 | 0.741 | 4.01
0.775 | 0.584 | 0.494 | AEEEIYGIFGA [SRCtide_2014] | 2.1 | 1.36 | 1.36 | 0.615 | 0.89 | 3 | 1.31 | 5.63 | 4.39 | 1.35 | 3.88 | 3.69 | 4.49
0.755 | 0.903 | 0.608 | AFLQTYAHEVS [PCDHGA5_Y753_S754A] | 0.896 | 0.455 | 0.565 | 0.621 | 0.617 | 0.521 | 0.985 | 0.49 | 0.506 | 0.786 | 0.503 | 0.693 | 0.474
0.824 | 0.64 | 0.555 | AFSLKYDQQTQ [SYTL4_Y366_E367D] | 1.03 | 0.484 | 0.69 | 0.539 | 0.784 | 0.485 | 1.14 | 0.522 | 0.614 | 1.03 | 0.406 | 0.716 | 0.48
0.692 | 0.573 | 7.93 | AGDGRYEVLFL [SEMA3F_Y478_A474G] | 0.94 | 0.658 | 0.667 | 0.533 | 0.786 | 4.36 | 1.02 | 0.455 | 0.772 | 0.927 | 1.08 | 0.758 | 0.545
0.953 | 0.688 | 0.63 | AGQKDYDRLRP [RAC3_Y64_E62K] | 0.662 | 0.501 | 0.543 | 0.462 | 0.572 | 0.787 | 0.761 | 0.52 | 0.47 | 0.546 | 0.358 | 0.627 | 0.36
1.18 | 1.07 | 0.872 | AHPIIYEIIEA [PYKtide_E_2014] | 1.93 | 22.3 | 20.4 | 2.02 | 1.59 | 16.2 | 5.96 | 9.6 | 9.98 | 1.16 | 11.6 | 2.94 | 8.32
2.15 | 2.29 | 1.76 | ALKKPYGVLFK [RPF2_Y59_YF] | 0.765 | 0.469 | 0.502 | 0.404 | 0.518 | 0.403 | 0.722 | 0.562 | 0.632 | 0.73 | 0.528 | 0.712 | 0.777
0.697 | 0.643 | 0.509 | ALPGEYIPTVF [RAC1_Y32_F28L] | 1.1 | 0.585 | 0.595 | 0.573 | 0.697 | 0.46 | 1.16 | 0.612 | 0.492 | 1.12 | 0.426 | 0.7 | 0.514
1.26 | 0.82 | 0.728 | AQRKLYRNVML [ZNF569_Y33] | 0.566 | 0.412 | 0.287 | 0.4 | 0.372 | 0.373 | 0.583 | 0.41 | 0.481 | 0.629 | 0.47 | 0.482 | 0.535

Second part, the sequence before the results:

Sequence | SH2 binding enrichment (Grb2 SH2) | SH2 binding enrichment (SHP2-C SH2) | SH2 binding enrichment (c-Src SH2) | phosphorylation enrichment (AncSZ) | phosphorylation enrichment (EPHB1) | phosphorylation enrichment (EPHB2) | phosphorylation enrichment (FGFR1) | phosphorylation enrichment (FGFR3) | phosphorylation enrichment (Fer (mouse)) | phosphorylation enrichment (Fes) | phosphorylation enrichment (Fyn) | phosphorylation enrichment (Hck) | phosphorylation enrichment (Jak2) | phosphorylation enrichment (MERTK) | phosphorylation enrichment (c-Abl (mouse)) | phosphorylation enrichment (c-Src)
AACQHYGVHTC [NR4A2_Y275_R278H] | 0.903 | 0.946 | 0.584 | 0.624 | 0.445 | 0.471 | 0.413 | 0.585 | 0.347 | 0.63 | 0.433 | 0.443 | 0.432 | 0.406 | 0.534 | 0.345
AAGGRYFGLVG [HARS1_Y363_D364Y_YF] | 1.06 | 0.828 | 0.608 | 0.516 | 0.312 | 0.377 | 0.375 | 0.471 | 0.389 | 0.764 | 0.396 | 0.354 | 0.575 | 0.395 | 0.626 | 0.461
AALLNYKAGRD [GRIN2A_Y737_V734L] | 0.861 | 0.762 | 0.523 | 0.623 | 0.409 | 0.465 | 0.508 | 0.494 | 0.384 | 0.687 | 0.494 | 0.527 | 0.508 | 0.468 | 0.454 | 0.472
AAVDEYLEHRR [FAM221A_Y17_Y20H] | 0.786 | 0.614 | 0.418 | 0.96 | 0.562 | 0.581 | 0.467 | 0.695 | 0.421 | 1.03 | 0.48 | 0.452 | 0.875 | 0.388 | 0.778 | 0.389
ADKAAYLQSLN [MYH2_Y389] | 0.86 | 0.8 | 0.553 | 0.779 | 0.458 | 0.561 | 0.506 | 0.572 | 0.539 | 0.789 | 0.536 | 0.516 | 0.777 | 0.476 | 0.546 | 0.45
AEDKPYAELWM [MPI_Y46] | 0.778 | 1.21 | 2.15 | 1.38 | 0.868 | 0.729 | 1.45 | 1.34 | 10.8 | 1.34 | 2.27 | 1.44 | 1.09 | 1.4 | 0.854 | 3.47
AESPEYVHMYT [FAM111A_Y511] | 0.768 | 0.586 | 0.693 | 1.34 | 0.486 | 0.491 | 1.92 | 1.26 | 0.467 | 1.01 | 0.423 | 0.469 | 0.962 | 0.413 | 0.825 | 0.531
AGRSGYDNREI [BCL2_Y9_T7S] | 0.731 | 0.757 | 0.494 | 0.574 | 0.386 | 0.409 | 0.366 | 0.49 | 0.32 | 0.635 | 0.426 | 0.441 | 0.52 | 0.366 | 0.551 | 0.394
AGTILYHAHLD [ASS1_Y291] | 0.949 | 0.74 | 0.477 | 0.591 | 0.526 | 0.78 | 0.535 | 0.497 | 0.398 | 0.703 | 0.479 | 0.523 | 0.495 | 0.561 | 0.509 | 0.451
AHAGEYGAVAL [HBA1_Y25_E28V] | 0.88 | 0.6 | 0.486 | 0.598 | 0.346 | 0.582 | 0.421 | 0.509 | 0.672 | 0.594 | 5.54 | 3.27 | 0.511 | 0.389 | 0.517 | 2.95
AIDVGYRLIDC [AKR1B1_Y40_H42L] | 0.993 | 0.7 | 2.02 | 0.874 | 0.456 | 0.45 | 0.514 | 0.594 | 0.424 | 1.2 | 0.428 | 0.417 | 0.792 | 0.39 | 0.861 | 0.512
ALAHKCHGGGG [HBB_Y146_Y146C] | 0.829 | 0.761 | 0.538 | 0.673 | 0.473 | 0.397 | 0.428 | 0.546 | 0.458 | 0.755 | 0.414 | 0.45 | 0.862 | 0.469 | 0.758 | 0.563
ALAPKYHGGGG [HBB_Y146_H144P] | 0.607 | 0.411 | 0.341 | 0.314 | 0.315 | 0.356 | 0.327 | 0.248 | 0.332 | 0.506 | 0.31 | 0.348 | 0.423 | 0.386 | 0.423 | 0.389
ALMGPYHGQVL [HADHA_Y343_L342P] | 0.77 | 1.03 | 0.433 | 0.544 | 0.366 | 0.41 | 0.411 | 0.436 | 0.336 | 0.537 | 0.336 | 0.384 | 0.485 | 0.335 | 0.61 | 0.46
ALWYIYLHTRS [ENG_Y614_S615L] | 0.641 | 0.607 | 0.521 | 1.1 | 0.542 | 0.476 | 0.62 | 0.821 | 0.514 | 1.39 | 0.432 | 0.384 | 1.09 | 0.352 | 0.733 | 0.331
ANFAKYGNPNE [BCHE_Y505] | 0.784 | 0.6 | 0.382 | 0.561 | 0.384 | 0.331 | 0.462 | 0.426 | 0.406 | 0.549 | 0.307 | 0.362 | 0.372 | 0.361 | 0.357 | 0.461
ANFTEYVATSW [CDKL5_Y171_R175S_YF] | 0.757 | 0.809 | 0.545 | 0.983 | 0.841 | 0.988 | 1.03 | 0.983 | 0.505 | 1.03 | 0.555 | 0.511 | 0.974 | 0.512 | 0.892 | 0.578
ANNEFYFQVCA | 0.741 | 0.662 | 0.337 | 1.26 | 0.656 | 0.588 | 0.755 | 0.939 | 0.601 | 1.37 | 0.478 | 0.536 | 1.25 | 0.43 | 0.818 | 0.486
AQADIYKANFQ [IKBKG_Y308_D311N] | 0.873 | 0.729 | 0.504 | 0.586 | 0.361 | 0.408 | 0.389 | 0.573 | 0.461 | 0.81 | 0.536 | 0.659 | 0.829 | 0.461 | 0.761 | 0.799
ARDVIYIIIPA [FRKtide_2014] | 1.82 | 2.09 | 1.44 | 1.31 | 2.48 | 0.986 | 2.92 | 2 | 0.559 | 1.36 | 0.873 | 1.23 | 1.42 | 2.21 | 1.17 | 1.52
MSLRSYGSWEG [APC_Y96_R99W] | 0.45 | 0.412 | 0.282 | 1.32 | 0.581 | 0.338 | 0.034 | 0.671 |  | 0.881 | 0.633 | 0.459 | 0.793 | 0.047 | 0.273 | 0.705
RETLTYAQAQG [BRD1_Y33_R38G] |  |  |  | 0.579 |  | 0.934 | 0.916 | 0.149 | 0.383 | 0.448 | 0.551 | 0.982 |  | 0.391 | 0.418 | 0.768
